Tests used:
Experiment in all cases: SPR
[1] = molecular target: 2V-BA11-2V (Squalus acanthias)
[2] = molecular target: 2V-BB11-2V (Squalus acanthias)
[3] = molecular target: 2V-E06-2V (Squalus acanthias | dogfish)
[4] = molecular target: humanized E06 BA11
[5] = molecular target: humanized E06 v2.4-2G
[6] = molecular target: humanized E06 BB11
[7] = molecular target: 2V-BB10-2V (Squalus acanthias)

| Kd [1] | koff [1] | Kd [2] | koff [2] | Kd [3] | koff [3] | Kd [4] | Kd [5] | Kd [6] | Kd [7] | koff [7] | Binder |
| --- | --- | --- | --- | --- | --- | --- | --- | --- | --- | --- | --- |
| 18.7 nM | 0.00054 s⁻¹ | 1.49 nM | 0.0035 s⁻¹ | 7.6 nM | 0.00075 s⁻¹ | 130 nM | 7.64 nM | 8.29 nM |  |  | rat serum albumin (natural protein) EAHKSEIAHRFKDLGEQHFKGLVLIAFSQYLQKCPYEEHIKLVQEVTDFAKTCVADENAENCDKSIHTLFGDKLCAIPKLRDNYGELADCCAKQEPERNECFLQHKDDNPNLPPFQRPEAEAMCTSFQENPTSFLGHYLHEVARRHPYFYAPELLYYAEKYNEVLTQCCTESDKAACLTPKLDAVKEKALVAAVRQRMKCSSMQRFGERAFKAWAVARMSQRFPNAEFAEITKLATDVTKINKECCHGDLLECADDRAELAKYMCENQATISSKLQACCDKPVLQKSQCLAEIEHDNIPADLPSIAADFVEDKEVCKNYAEAKDVFLGTFLYEYSRRHPDYSVSLLLRLAKKYEATLEKCCAEGDPPACYGTVLAEFQPLVEEPKNLVKTNCELYEKLGEYGFQNAVLVRYTQKAPQVSTPTLVEAARNLGRVGTKCCTLPEAQRLPCVEDYLSAILNRLCVLHEKTPVSEKVTKCCSGSLVERRPCFSALTVDETYVPKEFKAETFTFHSDICTLPDKEKQIKKQTALAELVKHKPKATEDQLKTVMGDFAQFVDKCCKAADKDNCFATEGPNLVARSKEALA |
| 7.95 nM | 9.48e-05 s⁻¹ | 0.64 nM | 0.000472 s⁻¹ | 0.76 nM | 0.000126 s⁻¹ |  |  |  | 5.5 nM | 0.00439 s⁻¹ | cynomolgus serum albumin (natural protein) DTHKSEVAHRFKDLGEEHFKGLVLVAFSQYLQQCPFEEHVKLVNEVTEFAKTCVADESAENCDKSLHTLFGDKLCTVATLRETYGEMADCCAKQEPERNECFLQHKDDNPNLPPLVRPEVDVMCTAFHDNEATFLKKYLYEVARRHPYFYAPELLFFAARYKAAFAECCQAADKAACLLPKLDELRDEGKASSAKQRLKCASLQKFGDRAFKAWAVARLSQKFPKAEFAEVSKLVTDLTKVHTECCHGDLLECADDRADLAKYMCENQDSISSKLKECCDKPLLEKSHCLAEVENDEMPADLPSLAADYVESKDVCKNYAEAKDVFLGMFLYEYARRHPDYSVMLLLRLAKAYEATLEKCCAAADPHECYAKVFDEFQPLVEEPQNLVKQNCELFEQLGEYKFQNALLVRYTKKVPQVSTPTLVEVSRNLGKVGAKCCKLPEAKRMPCAEDYLSVVLNRLCVLHEKTPVSEKVTKCCTESLVNRRPCFSALELDEAYVPKAFNAETFTFHADMCTLSEKEKQVKKQTALVELVKHKPKATKEQLKGVMDNFAAFVEKCCKADDKEACFAEEGPKFVAASQAALA |
